Results published in article PMC3741163, “CCL18 Exhibits a Regulatory Role through Inhibition of Receptor and Glycosaminoglycan Binding” (PLoS ONE, 2013).
“And” between values parts separate entries of the source, which are not always exact repeats. Equal values may be shown once.

T1: CCR3 (UniProt P51677 1-355)
T1 sequence (looked up): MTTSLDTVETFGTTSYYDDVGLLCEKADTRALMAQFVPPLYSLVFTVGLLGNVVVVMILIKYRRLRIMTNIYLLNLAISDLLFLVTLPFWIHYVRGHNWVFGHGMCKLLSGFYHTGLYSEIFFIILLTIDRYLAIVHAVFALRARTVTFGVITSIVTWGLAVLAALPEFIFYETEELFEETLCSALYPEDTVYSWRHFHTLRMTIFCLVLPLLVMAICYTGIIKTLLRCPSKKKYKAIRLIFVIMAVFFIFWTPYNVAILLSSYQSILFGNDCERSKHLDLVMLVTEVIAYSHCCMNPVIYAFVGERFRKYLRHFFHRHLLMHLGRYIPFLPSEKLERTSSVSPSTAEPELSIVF

B1: CCL18 (ligand, human, UniProt P55774 21-89, looked up)
chain: AQVGTNKELCCLVYTSWQIPQKFIVDYSETSPQCPKPGVILLTKRGRQICADPNKKWVQKYISDLKLNA
notes: CCL18 chemokine, unlabelled; also called PARC; MIP-4; source: purchased from PeptroTech or produced as previously described [30]
B2: CCL11 (ligand)
chain: not shown
notes: CCL11 chemokine, unlabelled; source: purchased from PeptroTech or produced as previously described [30]

Legend:
[1] = biological target: T1, CCR3; assay: cell-based or functional assay
[2] = biological target: T1, CCR3; assay: cell-based or functional assay; remark: listed apart in the source
[3] = biological target: T1, CCR3; assay: radioligand binding; equilibrium competition on L1.2/CCR3 transfectants, tracer 0.1 nM 125I-CCL18, 0.1 x10^6 cells/well, competitor 10^-6 to 10^-12 M, room temperature 4 h, filtration; conditions: one partner purified
[4] = biological target: T1, CCR3; assay: radioligand binding; equilibrium competition on L1.2/CCR3 transfectants, tracer 0.1 nM 125I-CCL11, 0.1 x10^6 cells/well, competitor 10^-6 to 10^-12 M, room temperature 4 h, filtration; conditions: one partner purified

EC50 of CCL11-induced Ca2+ release in L1.2/CCR3 transfectants in the presence of 0 nM to 5 µM CCL18 (EC50 69.93 nM without CCL18, rising with the concentration) [1] | IC50 of CCL18 for inhibition of chemotaxis of L1.2/CCR3 transfectants to 1 nM CCL11 (experiment shown in Figure 1A) [1] | IC50 of CCL18 for inhibition of chemotaxis of L1.2/CCR3 transfectants to 1 nM CCL11 (mean of 7) [2] | IC50 of CCL18 for inhibition of chemotaxis of L1.2/CCR3 transfectants to 10 nM CCL5 [2] | IC50 of CCL18 for inhibition of chemotaxis of L1.2/CCR3 transfectants to 10 nM CCL26 [2] | IC50 of CCL18 for inhibition of chemotaxis of L1.2/CCR3 transfectants to 100 nM CCL15 [2] | IC50 [3] | IC50 [4] | Binder
10500 nM | 397 nM | 318 nM | 40.8 nM | 123 nM | 2.9 nM | 6.8 nM and 8.86 nM | – | B1
– | – | – | – | – | – | – | 7.4 nM and 13.2 nM | B2
